Laboratory results as given in the supplement of paper PMC9170038.

Legend:
MS2 coat protein [1] = test: apparent KD of MS2 coat protein, switch ON state; designed switch direction (-1 OFF switch, 1 ON switch): -1; higher = weaker reporter binding; conditions: FMN input: 0 or 200 uM; Eterna round: R93 (includes R88 designs)
Outline: (§1)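 Designed RNA switches were transcribed on-chip from Illumina sequencing clusters. SNAP-549-labelled MS2 coat protein was titrated onto them in twofold steps from 0.7 or 1.5 nM to 3 µM in 100 mM Tris-HCl pH 7.5, 80 mM KCl, 4 mM MgCl2, either without or with constant ligand. Apparent KD reflects the per-design median of normalised cluster binding-curve fits.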

MS2 coat protein [2] = test: apparent KD of MS2 coat protein, switch OFF state (with FMN for OFF switches, without FMN for ON switches); designed switch direction (-1 OFF switch, 1 ON switch): -1; higher = weaker reporter binding; conditions: FMN input: 0 or 200 uM; Eterna round: R93 (includes R88 designs)
Outline: as §1

Row | Sequence | apparent KD of MS2 coat protein (MS2 coat protein [1]) | apparent KD of MS2 coat protein (MS2 coat protein [2])
1 | AAAAAGUGAGGAUAUACAUGAGGAUCACCCAUGUGUAUAAAAAAUUACACGAAAGAAUGUAGAAGGCACUAAAA [JL Mayanne Mod 3] | 18.2 nM | 42.8 nM
2 | AAAACACAUGAGGAUCACCCAUGUGAGGAUAUGCUAUGGAAAAUAAAAAUAAAACAUAGCAGAAGGCACAAAAA [Denovo 12] | 20.3 nM | 32.3 nM
3 | AGAAUACAUGAGGAUCACCCAUGUGAGGAUAUGCAGAUAAAAAUAAAAUAAAAUAAAUGCAGAAGGCACGAAAG [EX 1 May 21] | 37.1 nM | 86.1 nM
4 | CUCUUGUCAGGAUAUGUAAGAAAAGAAAAGAAAGAAAAGAAACAGAAGGGACAUGAGGAUCACCCAUGUAAGAA [EteRNA is fun!] | 78.9 nM | 53.1 nM
5 | AGGGAACAUGAGGAUCACCCAUGUGAGGAUAUGCUAUGGAAAAUAAAAAUAAAACAUAGCAGAAGGCAUAAAAA [Denovo 10] | 52.1 nM | 49.5 nM
6 | CUCUUGUCAGGAUAUGGAAGAAAAGAAAAGAAAGAAAAGAACCAGAAGGGACAUGAGGAUCACCCAUGUAAGAA [EteRNA is fun!] | 156 nM | 37.7 nM
7 | AAGAACCUAGGAUAUACUUGGGUAACUAAUAAACUGAUAUAACAUGAGGAUCACCCAUGUAGAAGGAGGAGAAA [JR_Exc002_Sub204] | 50.1 nM | 62.4 nM
8 | AAACGUUGAGGAUAUACGAAAAAGGGUAGGUCAAAUAAAACACAUGAGGAUCACCCAUGUAGAAGGCAACGAAA | 333 nM | 3.66 nM
9 | AGAAAGUGAGGAUAUACAUGAGGAUCACCCAUGUAGAACGAGAGUUAUAAAAAUGGAAGUAGAAGGCGCAAAAG [water's exclusion 3 2nd] | 28.6 nM | 34.8 nM
10 | AGUAUGCGAGGAUAUACAUGAGGAUCACCCAUGUGAGAGAUAAGUGUGAGAAAGACAAGUAGAAGGCGCGUACA [JL Lego Mod 27] | 106 nM | 331 nM
11 | AAAAAGUGAGGAUAUGUCAAAAGUCACAAAAGUGACAAAAGACAGAAGGCACAUGAGGAUCACCCAUGUGGGAA [Mod of Eli - Late G + early G segment 1] | 56.1 nM | 121 nM
12 | CGAAUGUAAGGAUAUAGCCACAUUACGAAUAAGUAGUGUGGCUAGAAGGUACAUGAGGAUCACCCAUGUAUGGG [Exclusion 4.5 (AU closing FMN)] | 181 nM | 51.7 nM
13 | AAAAAACAUGAGGAUCACCCAUGUGAGGAUAUGCGAAAAUAAAAUAAAAUAAUAAAAAGCAGAAGGCACACCAA [58%, Sh'dynasty, 2] | 22 nM | 29 nM
14 | AAAAUACAUGAGGAUCACCCAUGUCAGGAUAUUCCUGCAGCCUUGAAUAAGGGCUGGUGAAGAAGGGACGGUGA [Ancele] | 33.4 nM | 84.6 nM
15 | AAGAAGUCAGGAUAUGCUAAAGAAAUAAAAAGAAAGAAAGAACAUGAGGAUCACCCAUGUAGAAGGGACAAGAA [Seheqenre Sankhptahi] | 72.9 nM | 38.9 nM
16 | AGUUGGCGAGGAUAUACAUGAGGAUCACCCAUGUGAGAGAAAAAAAGGAAAAAAAAAAGUAGAAGGCGCUGACA [Mat - Exclusion 3 - Lego mod - D44] | 43 nM | 69.1 nM
17 | AGCUAGUCAGGAUAUACAAAAUGAUUGCGAAAGCAAUCAACACAUGAGGAUCACCCAUGUAGAAGGGACUAGCA [Mat - Exclusion 2 - JL-Eli mod - D43] | 18.5 nM | 21.1 nM
18 | GUGUACAGAGGAUAUAUAUAAGCAUGGAAACAUGCAAGAUCACAUGAGGAUCACCCAUGUAGAAGGCUGUACAC [Ex2: 737] | 23.3 nM | 73.7 nM
19 | AAGACUACAGGAUAUACAUGAGGAUCACCCAUGUAACUGACAAGCAGAGUACGGAGAAGUAGAAGGGUAGUCAA [Ruby 33] | 20.3 nM | 30.1 nM
20 | AGUGAGUCAGGAUAUUCGUGAAGAAUAAAAGAAAUAACAACGAAGAAGGGACAUGAGGAUCACCCAUGUACACA [May 57] | 33.6 nM | 25 nM
21 | AAAAAGGGAGGAUAUACAUGAGGAUCACCCAUGUGUCAGACGAAAAAGAGUCUGAAGUGUAGAAGGCCCAAAAA [65%, Moding Exclusion3-cac2, 1] | 25.9 nM | 40.7 nM
22 | GGAAAACAUGAGGAUCACCCAUGUAAGGAUAUGCAAAAAAAAAAAAGGAUAUAGAAGGGCAGAAGGUACAAAGG [salish99-ex1-30] | 23.3 nM | 36.1 nM
23 | AAAGGACGAGGAUAUACAUGAGGAUCACCCAUGUAAAAAACAUAAGAAAAGAAGUUAUGUAGAAGGCGUCCAAA [69%, Moding Meechl, 13] | 16.4 nM | 17.3 nM

Row | Sequence | apparent KD of MS2 coat protein (MS2 coat protein [1]) | apparent KD of MS2 coat protein (MS2 coat protein [2])
24 | AAAAAGUCAGGAUAUACAGAAAAAAAAACGAAAAAAAAUCUGUAGAAGGGACAUGAGGAUCACCCAUGUAAAAA [Ex 4 May 12] | 47.6 nM | 33.6 nM
25 | AGGGAGUGAGGAUAUACGAAAAAAAAAGAAGGAAAAAAAGAGUAGAAGGCACAUGAGGAUCACCCAUGUAAGAA [milkweed 13] | 35.8 nM | 26 nM
26 | AAAAAACAUGAGGAUCACCCAUGUGAGGAUAUGCAAAAAUAAAAUAAAAUAAUAAAAAGCAGAAGGCACAAAAA [Amethyst 76] | 20.5 nM | 26.4 nM
27 | AACAAACAUGAGGAUCACCCAUGUCAGGAUAUGCAAAUAACAAACAACAAACAACAAAGCAGAAGGGAUAGGAA [Mat - Exclusion 1 - Eli mod - D52] | 23.3 nM | 21.2 nM
28 | AAGGUUGGAGGAUAUACAUAGAUACAGAUACAUGUAGACGUACAUGAGGAUCACCCAUGUAGAAGGCCAAUAUA [Mat - Same state - Mayanna Mod - D146] | 137 nM | 88.6 nM
29 | CUUAAGUGAGGAUAUCAGUAGUAAAAAAAUAAAAUUACUACUGAGAAGGCACAUGAGGAUCACCCAUGUUCCAA [EX4 341: Super Stable 41] | 29.7 nM | 38.1 nM
30 | AACAGUACAGGAUAUACAUGAGGAUCACCCAUGUGAGAAUUAAGUGGCGAACCACAAAGUAGAAGGGUACUGGA [Mat - Exclusion 3 - JL mod - D1] | 43.1 nM | 469 nM
31 | AAAAAGUGAGGAUAUGGUAAAAAAAAAAAAAAAAAGCACCUCCAGAAGGCACAUGAGGAUCACCCAUGUCGAAA [Jolly's Folly 6 - Jieux - Exclusion 4] | 24.4 nM | 31.3 nM
32 | AAAAAACAUGAGGAUCACCCAUGUGAGGAUAUCGAAAAGUCAAAGAAAAAGACGAAAACGAGAAGGCGCAAAAA [Inspired by Nando] | 23.7 nM | 26 nM
33 | AAAAAGAGAGGAUAUGCAGGAGGUAAGGUCAAAAAAAAAAAACAUGAGGAUCACCCAUGUAGAAGGUUUAAAAA [Ecls2-VI] | 29.3 nM | 23.5 nM
34 | AACAGUACAGGAUAUACAUGAGGAUCACCCAUGUGAAAAUAAAGUGGCGUACCACAAAGUAGAAGGGUACUGAA [Mat - Exclusion 3 - JL mod - D26] | 26.7 nM | 124 nM
35 | AAGAAGUGAGGAUAUCGAAGACUGUCGAAAAGACAGUCGAACGAGAAGGCACAUGAGGAUCACCCAUGUGAGAG [Mat - Exaclusion 4 - Eli mod - D66] | 31.9 nM | 46.2 nM
36 | AAAAAGUCAGGAUAUACAUGAGGAUCACCCAUGUGAAAGAACGAAAAACGAAAAGCAAGUAGAAGGGACAAAAA [Ruby 78] | 13.1 nM | 14 nM
37 | AAAGUGUAAGGAUAUCUGAAAGGACACGAAAGUGACAAAGAAGAGAAGGUACAUGAGGAUCACCCAUGUAAAAA [milkweed 21] | 28.7 nM | 18.1 nM
38 | AAAGGGUCAGGAUAUCGAUUAAUAAUAAAAUAAAUGAAGAUCGAGAAGGGACAUGAGGAUCACCCAUGUAUAAC [May 79] | 41.8 nM | 64.6 nM
39 | AAAGGAUCAGGAUAUGUGUGGGAAAAGUGUGUCCAAAAAAAACAUGAGGAUCACCCAUGUAGAAGGGAUCCAAA [Mod 6 of Normal (20/19) by Nando, Round 1] | 487 nM | 265 nM
40 | AAAAAGUGAGGAUAUACAUGAGGAUCACCCAUGUUAAAAAAAAAAAAAUAUAAAAAUAGUAGAAGGCACAAAAA [Default title] | 48.8 nM | 41.3 nM
41 | AACAUGUAAGGAUAUCUAAGAAAAGAAAAGAAAGAAAAGAAAGAGAAGGUACAUGAGGAUCACCCAUGUAAGAA [EteRNA is fun!] | 32.7 nM | 18.3 nM
42 | AACAGUACAGGAUAUACAUGAGGAUCACCCAUGUGAGAAUUUAGCAGCGUAACACACAGUAGAAGGGUAAUGGA [Ruby 21] | 45.4 nM | 39.3 nM
43 | AAAAAGGUAGGAUAUACGAAAAAAAAGGGUAAAAUAAAUAAACAUGAGGAUCACCCAUGUAGAAGGACCAAAAA [Mat - Exclusion 2 - Tesla mod - D38] | 23.5 nM | 161 nM
44 | AAAACGGUAGGAUAUACGAUUUGGAACUAAACCGAGGAACCACAUGAGGAUCACCCAUGUAGAAGGGCCAAAAA [Mat - Exclusion 2 - JL mod - D81] | 18.4 nM | 14.7 nM
45 | AAAAAGUGAGGAUAUACGGUGUGGAGUAGACACAACCAGGCGUAGAAGGCACAUGAGGAUCACCCAUGUCCAAA [EX4 Malc#15] | 25.9 nM | 29.1 nM
